Assay results published in publication PMC11144241, “Nutrient levels control root growth responses to high ambient temperature in plants”.

Molecular target: T1, HY5 (Arabidopsis thaliana, UniProt O24646 1-168)
T1 sequence: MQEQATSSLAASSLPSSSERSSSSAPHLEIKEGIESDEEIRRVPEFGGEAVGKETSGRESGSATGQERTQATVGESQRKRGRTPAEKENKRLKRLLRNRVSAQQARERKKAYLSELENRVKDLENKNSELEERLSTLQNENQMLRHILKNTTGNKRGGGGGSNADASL
Assay: EMSA; EMSA according to manufacturer's protocol (Thermofisher); buffer, salt, pH and temperature not stated
Settings: protein: recombinant; tags: GST (pDEST15, N-terminal); label: biotin 3' end; blunt

B1: pNRT1.1-EMSA (G-box probe, NRT1.1 promoter) (dsDNA)
DNA 1: GAGTCACACATGTGTCACTT
DNA 2: AAGTGACACATGTGTGACTC
B1: binds.
